Here are results for four molecules from article PMC9499628, “Nuclear Factor Kappa B Promotes Ferritin Heavy Chain Expression in Bombyx mori in Response to B. mori Nucleopolyhedrovirus Infection”.

The target in data set [1] is T1, BmRelish RHD (RelRHD) (Bombyx mori, UniProt A0A8R2LW60 51-335).
T1 sequence: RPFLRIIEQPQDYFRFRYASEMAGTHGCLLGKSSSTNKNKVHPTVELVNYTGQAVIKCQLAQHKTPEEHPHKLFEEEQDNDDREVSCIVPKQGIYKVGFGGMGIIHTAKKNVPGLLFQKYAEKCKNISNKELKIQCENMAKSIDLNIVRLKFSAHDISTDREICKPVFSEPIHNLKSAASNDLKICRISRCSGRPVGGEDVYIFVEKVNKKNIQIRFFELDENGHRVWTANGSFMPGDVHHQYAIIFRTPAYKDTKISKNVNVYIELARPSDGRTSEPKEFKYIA
Put plainly: competition; mutant competitor against CRE2 probe; band not affected; Chemiluminescent EMSA Kit (Beyotime), manufacturer's instructions; buffer, salt, pH and temperature not stated. Conditions: protein: recombinant; tags: 6xHis (pET-30a); chain copies: 2; blunt. (A gel shift assay detects complexes by their altered migration in electrophoresis.)

In data set [2] the target is T1, BmRelish RHD (RelRHD). In words: competition; mutant competitor against CRE4 probe; band not affected; Chemiluminescent EMSA Kit (Beyotime), manufacturer's instructions; buffer, salt, pH and temperature not stated. The following applies: protein: recombinant; tags: 6xHis (pET-30a); chain copies: 2; blunt.
Data set [3] deals with T1, BmRelish RHD (RelRHD). In words: EMSA; cold probe weakens band; Chemiluminescent EMSA Kit (Beyotime), manufacturer's instructions; buffer, salt, pH and temperature not stated. The following applies: protein: recombinant; tags: 6xHis (pET-30a); chain copies: 2; label: 5' biotin (unlabelled as cold probe); blunt.

B1: Mut-CRE2 (dsDNA)
DNA 1: AATGTACATTATCTCCATCTCG
DNA 2: CGAGATGGAGATAATGTACATT
As for B1, in the data set with BmRelish RHD (RelRHD) [1], the binding result is listed as “no binding”.

B2: Mut-CRE4 (dsDNA)
DNA 1: AATAAGTGCCAAACACTCCATCTCGC
DNA 2: GCGAGATGGAGTGTTTGGCACTTATT
Take B2: the binding result with BmRelish RHD (RelRHD) [2] is on record as “no binding”.

B3: probe-CRE4 (dsDNA)
DNA 1: AATAAGTGGGAATCTCTCCATCTCGC
DNA 2: GCGAGATGGAGAGATTCCCACTTATT
For the molecule B3, the binding result with BmRelish RHD (RelRHD) [3] is on record as “binds”.

B4: probe-CRE2 (dsDNA)
DNA 1: AATGTAGGTTATTTCCATCTCG
DNA 2: CGAGATGGAAATAACCTACATT
Consider B4, for which the binding result in the data set with BmRelish RHD (RelRHD) [3] is on record as “binds”.
